# Key:
# APP-TAP-AICD [1] = target: T1, APP-TAP-AICD (human, UniProt P05067 18-695); test: streptavidin purification of APP-TAP-AICD from brain homogenate; LTQ-FT semiquantitative method, transgenic mouse 75 vs control mouse 72
# APP-TAP-AICD [2] = target: T1, APP-TAP-AICD; test: streptavidin purification of APP-TAP-AICD from brain homogenate; iTRAQ 116/114, transgenic mouse 75 vs control mouse 72; MALDI-TOF/TOF;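 note: relative protein abundance in the transgenic versus control pull-down, limited to proteins with high quality scores and above-average enrichment, without full normalization across the whole measurement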
# Source text: Shown are all proteins that have high quality scores and are enriched above average in the m75 sample. Purified bait protein is given underlined. Other already known interaction partners of AICD or putatively biologically relevant proteins are given in bold. As full normalization over the entire measurement was not possible through the GPS explorer software suite, this conservative estimate had to be taken for determining the enriched vs. the non-enriched proteins. […] Ranking is in order of abundance ratio.
probability that this protein is enriched (APP-TAP-AICD [1]),iTRAQ ratio (APP-TAP-AICD [2]),Binder
0.85,,"Clathrin coat assembly protein AP180 (Clathrin coat-associated protein AP180) (91 kDa synaptosomal-associated protein) (other, mouse, UniProt Q61548 1-901, looked up, also called AP180_MOUSE; Clathrin coat assembly protein Aβ180) MSGQTLTDRIAAAQYSVTGSAVARAVCKATTHEVMGPKKKHLDYLIQATNETNVNIPQMADTLFERATNSSWVVVFKALVTTHHLMVHGNERFIQYLASRNTLFNLSNFLDKSGSHGYDMSTFIRRYSRYLNEKAFSYRQMAFDFARVKKGADGVMRTMVPEKLLKSMPILQGQIDALLEFDVHPNELTNGVINAAFMLLFKDLIKLFACYNDGVINLLEKFFEMKKGQCKDALEIYKRFLTRMTRVSEFLKVAEQVGIDKGDIPDLTQAPSSLMETLEQHLNTLEGKKPGNNEGSGAPSPLSKSSPATTVTSPNSTPAKTIDTSPPVDIFATASAAAPVSSAKPSSDLLDLQPDFSGAAAGAAAPVVPPSGGATAWGDLLGEDSLAALSSVPCEAPISDPFAPEPSPPTTTTEPASASASTTTAVTAVTTEVDLFGDAFAASPGEAPAASEGATAPATPAPVAAALDACSGNDPFAPSEGSAEAAPELDLFAMKPPETSAPVVTPTASTAPPVPATAPSPAPTAVAATAATTTAAAAATTTATTSAAAATTAAAPPALDIFGDLFDSAPEVAAAPKPDAAPSIDLFGTDAFSSPPRGASPVPESSLTADLLSVDAFAAPSPASTASPAKAESSGVIDLFGDAFGSGASETQPAPQAVSSSSASADLLAGFGGSFMAPSTTPVTPAQNNLLQPSFEAAFGTTPSTSSSSSFDPSVFDGLGDLLMPTMAPSGQPAPVSMVPPSPAMAASKGLGSDLDSSLASLVGNLGISGTTSKKGDLQWNAGEKKLTGGANWQPKVTPATWSAGVPPQGTVPPTSSVPPGAGAPSVGQPGAGFGMPPSGTGMTMMSQQPVMFAQPMMRPPFGAAAVPGTQLSPSPTPATQSPKKPPAKDPLADLNIKDFL"
1,4.87,"Phosphatidylethanolamine-binding protein (PEBP) (other, mouse, UniProt P70296 2-187, looked up, also called PEBP1_MOUSE) AADISQWAGPLCLQEVDEPPQHALRVDYAGVTVDELGKVLTPTQVMNRPSSISWDGLDPGKLYTLVLTDPDAPSRKDPKFREWHHFLVVNMKGNDISSGTVLSDYVGSGPPSGTGLHRYVWLVYEQEQPLSCDEPILSNKSGDNRGKFKVETFRKKYNLGAPVAGTCYQAEWDDYVPKLYEQLSGK"
0.82,4.57,"Dynamin-1 (enzyme, mouse, UniProt P39053 1-867, looked up, also called DYN1_MOUSE; Dynamin I) MGNRGMEDLIPLVNRLQDAFSAIGQNADLDLPQIAVVGGQSAGKSSVLENFVGRDFLPRGSGIVTRRPLVLQLVNSTTEYAEFLHCKGKKFTDFEEVRLEIEAETDRVTGTNKGISPVPINLRVYSPHVLNLTLVDLPGMTKVPVGDQPPDIEFQIRDMLMQFVTKENCLILAVSPANSDLANSDALKIAKEVDPQGQRTIGVITKLDLMDEGTDARDVLENKLLPLRRGYIGVVNRSQKDIDGKKDITAALAAERKFFLSHPSYRHLADRMGTPYLQKVLNQQLTNHIRDTLPGLRNKLQSQLLSIEKEVDEYKNFRPDDPARKTKALLQMVQQFAVDFEKRIEGSGDQIDTYELSGGARINRIFHERFPFELVKMEFDEKELRREISYAIKNIHGIRTGLFTPDMAFETIVKKQVKKIREPCLKCVDMVISELISTVRQCTKKLQQYPRLREEMERIVTTHIREREGRTKEQVMLLIDIELAYMNTNHEDFIGFANAQQRSNQMNKKKTSGNQDEILVIRKGWLTINNIGIMKGGSKEYWFVLTAENLSWYKDDEEKEKKYMLSVDNLKLRDVEKGFMSSKHIFALFNTEQRNVYKDYRQLELACETQEEVDSWKASFLRAGVYPERVGDKEKASETEENGSDSFMHSMDPQLERQVETIRNLVDSYMAIVNKTVRDLMPKTIMHLMINNTKEFIFSELLANLYSCGDQNTLMEESAEQAQRRDEMLRMYHALKEALSIIGDINTTTVSTPMPPPVDDSWLQVQSVPAGRRSPTSSPTPQRRAPAVPPARPGSRGPAPGPPPAGSALGGAPPVPSRPGASPDPFGPPPQVPSRPNRAPPGVPSLGAWRLNSPQGKHENRAGKARL"
0.86,4.71,"Malate dehydrogenase; mitochondrial precursor (enzyme, mouse, UniProt P08249 25-338, looked up) AKVAVLGASGGIGQPLSLLLKNSPLVSRLTLYDIAHTPGVAADLSHIETRANVKGYLGPEQLPDCLKGCDVVVIPAGVPRKPGMTRDDLFNTNATIVATLTAACAQHCPEAMVCIIANPVNSTIPITAEVFKKHGVYNPNKIFGVTTLDIVRANTFVAELKGLDPARVNVPVIGGHAGKTIIPLISQCTPKVDFPQDQLATLTGRIQEAGTEVVKAKAGAGSATLSMAYAGARFVFSLVDAMNGKEGVVECSFVQSKETECTYFSTPLLLGKKGLEKNLGIGKITPFEEKMIAEAIPELKASIKKGEDFVKNMK"
1,4.61,"Fructose-bisphosphate aldolase A (Muscle-type aldolase) (Aldolase 1) (enzyme, mouse, UniProt P05064 2-364, looked up) PHPYPALTPEQKKELSDIAHRIVAPGKGILAADESTGSIAKRLQSIGTENTEENRRFYRQLLLTADDRVNPCIGGVILFHETLYQKADDGRPFPQVIKSKGGVVGIKVDKGVVPLAGTNGETTTQGLDGLSERCAQYKKDGADFAKWRCVLKIGEHTPSALAIMENANVLARYASICQQNGIVPIVEPEILPDGDHDLKRCQYVTEKVLAAVYKALSDHHVYLEGTLLKPNMVTPGHACTQKFSNEEIAMATVTALRRTVPPAVTGVTFLSGGQSEEEASINLNAINKCPLLKPWALTFSYGRALQASALKAWGGKKENLKAAQEEYIKRALANSLACQGKYTPSGQSGAAASESLFISNHAY"
0.83,4.28,"14-3-3 protein gamma (other, mouse, UniProt P61982 1-247, looked up, also called 14-3-3 γ) MVDREQLVQKARLAEQAERYDDMAAAMKNVTELNEPLSNEERNLLSVAYKNVVGARRSSWRVISSIEQKTSADGNEKKIEMVRAYREKIEKELEAVCQDVLSLLDNYLIKNCSETQYESKVFYLKMKGDYYRYLAEVATGEKRATVVESSEKAYSEAHEISKEHMQPTHPIRLGLALNYSVFYYEIQNAPEQACHLAKTAFDDAIAELDTLNEDSYKDSTLIMQLLRDNLTLWTSDQQDDDGGEGNN"
1,4.53,"Aconitate hydratase; mitochondrial precursor (Citrate hydro-lyase) (enzyme, mouse, UniProt Q99KI0 28-780, looked up, also called Aconitase) QRAKVAMSHFEPSEYIRYDLLEKNINIVRKRLNRPLTLSEKIVYGHLDDPANQEIERGKTYLRLRPDRVAMQDATAQMAMLQFISSGLPKVAVPSTIHCDHLIEAQVGGEKDLRRAKDINQEVYNFLATAGAKYGVGFWRPGSGIIHQIILENYAYPGVLLIGTDSHTPNGGGLGGICIGVGGADAVDVMAGIPWELKCPKVIGVKLTGSLSGWTSPKDVILKVAGILTVKGGTGAIVEYHGPGVDSISCTGMATICNMGAEIGATTSVFPYNHRMKKYLSKTGRTDIANLAEEFKDHLVPDPGCQYDQVIEINLNELKPHINGPFTPDLAHPVADVGTVAEKEGWPLDIRVGLIGSCTNSSYEDMGRSAAVAKQALAHGLKCKSQFTITPGSEQIRATIERDGYAQILRDVGGIVLANACGPCIGQWDRKDIKKGEKNTIVTSYNRNFTGRNDANPETHAFVTSPEIVTALAIAGTLKFNPETDFLTGKDGKKFKLEAPDADELPRSDFDPGQDTYQHPPKDSSGQRVDVSPTSQRLQLLEPFDKWDGKDLEDLQILIKVKGKCTTDHISAAGPWLKFRGHLDNISNNLLIGAINIENGKANSVRNAVTQEFGPVPDTARYYKKHGIRWVVIGDENYGEGSSREHAALEPRHLGGRAIITKSFARIHETNLKKQGLLPLTFADPSDYNKIHPVDKLTIQGLKDFAPGKPLKCVIKHPNGTQETILLNHTFNETQIEWFRAGSALNRMKELQQ"
0.86,,"Plasma membrane calcium-transporting ATPase 2 (PMCA2) (enzyme, mouse, UniProt Q9R0K7 1-1198, looked up, also called AT2B2_MOUSE) MGDMTNSDFYSKNQRNESSHGGEFGCTMEELRSLMELRGTEAVVKIKETYGDTEAICRRLKTSPVEGLPGTAPDLEKRKQIFGQNFIPPKKPKTFLQLVWEALQDVTLIILEIAAIISLGLSFYHPPGESNEGCATAQGGAEDEGEAEAGWIEGAAILLSVICVVLVTAFNDWSKEKQFRGLQSRIEQEQKFTVVRAGQVVQIPVAEIVVGDIAQIKYGDLLPADGLFIQGNDLKIDESSLTGESDQVRKSVDKDPMLLSGTHVMEGSGRMVVTAVGVNSQTGIIFTLLGAGGEEEEKKDKKAKQQDGAAAMEMQPLKSAEGGDADDKKKANMHKKEKSVLQGKLTKLAVQIGKAGLVMSAITVIILVLYFTVDTFVVNKKPWLTECTPVYVQYFVKFFIIGVTVLVVAVPEGLPLAVTISLAYSVKKMMKDNNLVRHLDACETMGNATAICSDKTGTLTTNRMTVVQAYVGDVHYKEIPDPSSINAKTLELLVNAIAINSAYTTKILPPEKEGALPRQVGNKTECGLLGFVLDLRQDYEPVRSQMPEEKLYKVYTFNSVRKSMSTVIKMPDESFRMYSKGASEIVLKKCCKILSGAGEARVFRPRDRDEMVKKVIEPMACDGLRTICVAYRDFPSSPEPDWDNENDILNELTCICVVGIEDPVRPEVPEAIRKCQRAGITVRMVTGDNINTARAIAIKCGIIHPGEDFLCLEGKEFNRRIRNEKGEIEQERIDKIWPKLRVLARSSPTDKHTLVKGIIDSTHTEQRQVVAVTGDGTNDGPALKKADVGFAMGIAGTDVAKEASDIILTDDNFSSIVKAVMWGRNVYDSISKFLQFQLTVNVVAVIVAFTGACITQDSPLKAVQMLWVNLIMDTFASLALATEPPTETLLLRKPYGRNKPLISRTMMKNILGHAVYQLTLIFTLLFVGEKMFQIDSGRNAPLHSPPSEHYTIIFNTFVMMQLFNEINARKIHGERNVFDGIFRNPIFCTIVLGTFAIQIVIVQFGGKPFSCSPLQLDQWMWCIFIGLGELVWGQVIATIPTSRLKFLKEAGRLTQKEEIPEEELNEDVEEIDHAERELRRGQILWFRGLNRIQTQIRVVKAFRSSLYEGLEKPESRTSIHNFMAHPEFRIEDSQPHIPLIDDTDLEEDAALKQNSSPPSSLNKNNSAIDSGINLTTDTSKSATSSSPGSPIHSLETSL"
0.86,,"phosphoglycerate mutase 1 (enzyme, mouse, UniProt Q9DBJ1 1-254, looked up, also called PGAM1_MOUSE) MAAYKLVLIRHGESAWNLENRFSGWYDADLSPAGHEEAKRGGQALRDAGYEFDICFTSVQKRAIRTLWTVLDAIDQMWLPVVRTWRLNERHYGGLTGLNKAETAAKHGEAQVKIWRRSYDVPPPPMEPDHPFYSNISKDRRYADLTEDQLPSCESLKDTIARALPFWNEEIVPQIKEGKRVLIAAHGNSLRGIVKHLEGLSEEAIMELNLPTGIPIVYELDKNLKPIKPMQFLGDEETVRKAMEAVAAQGKVKK"
0.83,4.51,"14-3-3 protein zeta/delta (Protein kinase C inhibitor protein-1) (KCIP-1) (SEZ-2) (other, mouse, UniProt P63101 1-245, looked up) MDKNELVQKAKLAEQAERYDDMAACMKSVTEQGAELSNEERNLLSVAYKNVVGARRSSWRVVSSIEQKTEGAEKKQQMAREYREKIETELRDICNDVLSLLEKFLIPNASQPESKVFYLKMKGDYYRYLAEVAAGDDKKGIVDQSQQAYQEAFEISKKEMQPTHPIRLGLALNFSVFYYEILNSPEKACSLAKTAFDEAIAELDTLSEESYKDSTLIMQLLRDNLTLWTSDTQGDEAEAGEGGEN"

# From patent US20100169988A1 (published 2010)
